Results from US20190002571A1, “INHIBITION OF CCL5 LIGAND BINDING TO CCR5 RECEPTOR AND ALTERATION OF CCR5/CCL5 AXIS SIGNALING IN INFLAMMATION, CANCER, AUTOIMMUNE, AND OTHER CONDITIONS” (CytoDyn Inc., priority 2015, published 2019).

Legend:
human CCR5 [1] = biological target: T1, human CCR5 (Homo sapiens, UniProt P51681); test: cAMP accumulation in primary CD4+ CCR5+ T cells (radioimmunoassay); assay type: cell-based; set-up: Primary CD4+ cell lines were prepared from healthy human donors and grown for 7-10 days prior to sorting for CD4+ CCR5+ T cells; endogenous in cells; host or cells: primary human CD4+ CCR5+ T cells (PHA/IL-2 expanded PBMC, FACS sorted); details: for cAMP accumulation (stimulated): single agent with rolipram 20 uM and forskolin 10 uM; for cAMP accumulation (stimulated) / cAMP accumulation (unstimulated, basal): PRO 140 1 ug/ml, CCL5 0.1 uM; for cAMP accumulation (unstimulated, basal): single agent with rolipram 20 uM, 37° C., 10 minutes; for effect on cAMP levels as single agent: single agents, CD4+ CCR5+ T cells
Method: The first set of experiments was designed to see if PRO 140 has antagonist and/or agonist activity for alternative signaling pathways known to be activated downstream of CCR5 engagement, such as G-protein mediated modulation of intracellular cyclic AMP (cAMP) or specific tyrosine kinase activation.
a. Cell Lines: Primary CD4+ cell lines were prepared from healthy human donors and grown for 7-10 days prior to sorting for CD4+ CCR5+ T cells. PBMC were stimulated with 1 ug/ml of PHA-L Sigma (2E6/well in 24 well plates). PHA lines were expanded using 30 U/ml IL-2 for 24 hours after stimulation and every other day until FACS sorting for CD4+ CCR5+ T cells (on days 7-10). FACS sorting was done using anti-human CD4-percp-Cy5.5 clone RPA-T4, Mouse IgG1k, at 25 ug/ml, with a working concentration of 0.125 ug/ml. Anti-human CCR5-PE clone NP-6G4, Mouse IgG1k, concentration 25 ug/ml, working concentration 1.25 ug/ml was used.
b. Methods: Cell lines were assayed for cAMP levels in the absence or presence of rolipram (20 uM, a cyclic nucleotide phosphodiesterase-4 (PDF-4) inhibitor) with either no addition (basal cAMP) or in response to forskolin (FSK) (10 uM, a non-specific activator of cAMP synthesis), PRO 140 (1 ug/ml), forskolin+PRO 140, CCL5 (0.1 uM), CCL5+ forskolin, or PRO 140+ CCL5+ forskolin. Incubations (0.5E6 cells/ml) were conducted at 37° C. for 10 minutes and then terminated by addition of ice-cold 7.5% trichloroacetic acid (TCA). cAMP was quantified by radioimmunoassay. Statistical significance was determined by unpaired, one-tailed t test analysis using GraphPad prism software, version 4.0

human CCR5 [2] = biological target: T1, human CCR5; test: Migration (chemotaxis) assay with CHO-K1-hCCR5 cells, ATPlite readout; assay type: cell-based; set-up: Production of the full length protein was confirmed by western blot; expressed in transfected cells; host or cells: CHO-K1; details: for chemotactic response / direct induction of migration, agent alone: single agent over its concentration range (MVC 0.0045-10 μM; CCL5 0.0007-0.50 μM), FIG. 4, FIG. 5; for concentrations at which CCL5 induced migration was inhibited: constant dose of CCL5 0.005 μM
Source text: This experiment was designed to investigate the role of PRO 140 on chemotaxis induced by CCL5 engagement of the CCR5 receptor on CHO-CCR5 target cells (CHO-K1 cell line).
a. Cell Lines: The CHO-K1 cell line was transfected with a human CCR5 expression plasmid and selected for expression. Production of the full length protein was confirmed by western blot. Fluorescence-activated cell sorting (FACS) analysis was used to sort for cells that expressed CCR5 on the surface and these cells were purified and expanded.
b. Methods: Migration assays were done in Multiscreen MC plates using CHO-K1-hCCR5 cells in the upper chamber and with media and test agents in the bottom chamber. The agents tested included: PRO 140, Maraviroc (MVC), CCL5, forskolin (FSK), and an IgG4 control as single agents, and PRO 140+CCL5, and Maraviroc+CCL5 as combined agents. The effects on the Chemotaxis Index were measured over a wide concentration range of the test substance. The Chemotaxis Index was calculated as the migration of cells into the lower chamber with a test substance divided by the migration of cells into the lower chamber without the test substance or with a control substance. Migration was measured using the ATPlite assay. All assays were performed in triplicate. Data analysis was determined by the Chemotaxis Index over a wide concentration range of the test substance. Dose ranges of test agents were as follows: PRO 140 was 0.0045-10 ug/ml; MVC was 0.0045-10 μM; CCL5 was 0.0007-0.50 μM; FSK was 0.0045-10 μM; IgG4 control was 0.0045-10 μg/ml.

T1 sequence (P51681 whole entry): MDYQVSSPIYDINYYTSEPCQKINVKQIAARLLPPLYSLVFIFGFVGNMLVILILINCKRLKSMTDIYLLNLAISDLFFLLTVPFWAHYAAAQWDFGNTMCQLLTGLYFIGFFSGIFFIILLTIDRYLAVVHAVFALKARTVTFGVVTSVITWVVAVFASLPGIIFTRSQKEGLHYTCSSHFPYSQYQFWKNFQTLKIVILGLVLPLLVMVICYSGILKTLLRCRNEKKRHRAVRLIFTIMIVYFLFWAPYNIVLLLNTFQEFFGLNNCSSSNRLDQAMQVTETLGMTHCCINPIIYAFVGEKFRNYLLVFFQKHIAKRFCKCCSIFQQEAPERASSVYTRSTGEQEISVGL

Row | Molecule | cAMP accumulation (stimulated) (human CCR5 [1]; FIG. 2) [fmoles cAMP/0.5E6 cells] | cAMP accumulation (unstimulated, basal) (human CCR5 [1]; no forskolin, FIG. 1) [fmoles cAMP/0.5E6 cells] | effect on cAMP levels as single agent (human CCR5 [1]) | chemotactic response / direct induction of migration, agent alone (human CCR5 [2]) | concentration range in which the chemotactic response was significant (human CCR5 [2]; MVC alone, FIG. 4) | concentrations at which CCL5 induced migration was inhibited (human CCR5 [2]; FIG. 5) | chemotactic response / direct induction of migration, agent alone (human CCR5 [2]; listed as MVC) | effect on CCL5 triggered decrease in cAMP levels (human CCR5 [1]; PRO 140 combined with CCL5) | cAMP accumulation (stimulated) in the presence of CCL5 (human CCR5 [1]; rolipram + PRO 140 1 ug/ml + CCL5 0.1 uM + forskolin 10 uM, FIG. 2) [fmoles cAMP/0.5E6 cells] | cAMP accumulation (unstimulated, basal) in the presence of CCL5 (human CCR5 [1]; rolipram + PRO 140 1 ug/ml + CCL5 0.1 uM, no forskolin, FIG. 1) [fmoles cAMP/0.5E6 cells] | Chemotaxis Index (chemotactic response), agent alone (human CCR5 [2]; FIG. 4, PRO 140 alone, concentration range 0.0045-10 μg/ml) | Chemotaxis Index, agent alone (human CCR5 [2]; FIG. 6, PRO 140 alone, concentration range 0.0045-4.0 μg/ml) | concentrations at which CCL5 induced migration was inhibited (human CCR5 [2]; FIG. 6)
1 | CCL5: C-C chemokine ligand 5, inflammatory chemokine also known as RANTES; natural CCR5 ligand [reference compound] | 3800 | 60 | decreased cAMP levels | pronounced |  |  |  |  |  |  |  |  | 
2 | Maraviroc |  |  |  |  | above 0.01 μM | above 0.05 μM | significant direct induction of migration |  |  |  |  |  | 
3 | PRO 140: a known humanized monoclonal antibody CCR5 antagonist with anti-HIV properties (antibody, chains of the INN, looked up, V domains shown) VH: EVQLVESGGGLVKPGGSLRLSCAASGYTFSNYWIGWVRQAPGKGLEWIGDIYPGGNYIRNNEKFKDKTTLSADTSKNTAYLQMNSLKTEDTAVYYCGSSFGSNYVFAWFTYWGQGTLVTVSS VL: DIVMTQSPLSLPVTPGEPASISCRSSQRLLSSYGHTYLHWYLQKPGQSPQLLIYEVSNRFSGVPDRFSGSGSGTDFTLKISRVEAEDVGVYYCSQSTHVPLTFGQGTKVEIK | 6300 | 110 | no effect on cAMP levels |  |  |  |  | diminished the effects of CCL5 on decreasing cAMP | 5700 | 107 | 0 | less than 3 | above 0.4 μg/ml
